{
  "source": "paper PMC4434891",
  "about": "“The Smc5-Smc6 heterodimer associates with DNA through several independent binding domains” (Scientific Reports, 2015)",
  "binders": {"B1": {"name": "Smc5 FL (full-length Smc5) (natural protein, UniProt Q08204 1-1093, looked up)", "chain": "MTSLIDLGRYVERTHHGEDTEPRSKRVKIAKPDLSSFQPGSIIKIRLQDFVTYTLTEFNLSPSLNMIIGPNGSGKSTFVCAVCLGLAGKPEYIGRSKKVEDFIKNGQDVSKIEITLKNSPNVTDIEYIDARDETIKITRIITRSKRRSDYLINDYQVSESVVKTLVAQLNIQLDNLCQFLSQERVEEFARLKSVKLLVETIRSIDASLLDVLDELRELQGNEQSLQKDLDFKKAKIVHLRQESDKLRKSVESLRDFQNKKGEIELHSQLLPYVKVKDHKEKLNIYKEEYERAKANLRAILKDKKPFANTKKTLENQVEELTEKCSLKTDEFLKAKEKINEIFEKLNTIRDEVIKKKNQNEYYRGRTKKLQATIISTKEDFLRSQEILAQTHLPEKSVFEDIDIKRKEIINKEGEIRDLISEIDAKANAINHEMRSIQRQAESKTKSLTTTDKIGILNQDQDLKEVRDAVLMVREHPEMKDKILEPPIMTVSAINAQFAAYLAQCVDYNTSKALTVVDSDSYKLFANPILDKFKVNLRELSSADTTPPVPAETVRDLGFEGYLSDFITGDKRVMKMLCQTSKIHTIPVSRRELTPAQIKKLITPRPNGKILFKRIIHGNRLVDIKQSAYGSKQVFPTDVSIKQTNFYQGSIMSNEQKIRIENEIINLKNEYNDRKSTLDALSNQKSGYRHELSELASKNDDINREAHQLNEIRKKYTMRKSTIETLREKLDQLKREARKDVSQKIKDIDDQIQQLLLKQRHLLSKMASSMKSLKNCQKELISTQILQFEAQNMDVSMNDVIGFFNEREADLKSQYEDKKKFVKEMRDTPEFQSWMREIRSYDQDTKEKLNKVAEKYEEEGNFNLSFVQDVLDKLESEIAMVNHDESAVTILDQVTAELRELEHTVPQQSKDLETIKAKLKEDHAVLEPKLDDIVSKISARFARLFNNVGSAGAVRLEKPKDYAEWKIEIMVKFRDNAPLKKLDSHTQSGGERAVSTVLYMIALQEFTSAPFRVVDEINQGMDSRNERIVHKAMVENACAENTSQYFLITPKLLTGLHYHEKMRIHCVMAGSWIPNPSEDPKMIHFGETSNYSFD", "notes": "Smc5, full length, residues 1-1093; Vector YEpFAT4; also called FL Smc5; source: yeast, purified as previously described (StrepTrap column)"}},
  "molecular_target": "T1, Smc6 FL (full-length Smc6) (UniProt Q12749 1-1114)",
  "T1 construct": "Smc6, full length, residues 1-1114; Vector YEpFAT4; also called FL Smc6; source: yeast, purified as previously described (StrepTrap column)",
  "T1 sequence (looked up)": "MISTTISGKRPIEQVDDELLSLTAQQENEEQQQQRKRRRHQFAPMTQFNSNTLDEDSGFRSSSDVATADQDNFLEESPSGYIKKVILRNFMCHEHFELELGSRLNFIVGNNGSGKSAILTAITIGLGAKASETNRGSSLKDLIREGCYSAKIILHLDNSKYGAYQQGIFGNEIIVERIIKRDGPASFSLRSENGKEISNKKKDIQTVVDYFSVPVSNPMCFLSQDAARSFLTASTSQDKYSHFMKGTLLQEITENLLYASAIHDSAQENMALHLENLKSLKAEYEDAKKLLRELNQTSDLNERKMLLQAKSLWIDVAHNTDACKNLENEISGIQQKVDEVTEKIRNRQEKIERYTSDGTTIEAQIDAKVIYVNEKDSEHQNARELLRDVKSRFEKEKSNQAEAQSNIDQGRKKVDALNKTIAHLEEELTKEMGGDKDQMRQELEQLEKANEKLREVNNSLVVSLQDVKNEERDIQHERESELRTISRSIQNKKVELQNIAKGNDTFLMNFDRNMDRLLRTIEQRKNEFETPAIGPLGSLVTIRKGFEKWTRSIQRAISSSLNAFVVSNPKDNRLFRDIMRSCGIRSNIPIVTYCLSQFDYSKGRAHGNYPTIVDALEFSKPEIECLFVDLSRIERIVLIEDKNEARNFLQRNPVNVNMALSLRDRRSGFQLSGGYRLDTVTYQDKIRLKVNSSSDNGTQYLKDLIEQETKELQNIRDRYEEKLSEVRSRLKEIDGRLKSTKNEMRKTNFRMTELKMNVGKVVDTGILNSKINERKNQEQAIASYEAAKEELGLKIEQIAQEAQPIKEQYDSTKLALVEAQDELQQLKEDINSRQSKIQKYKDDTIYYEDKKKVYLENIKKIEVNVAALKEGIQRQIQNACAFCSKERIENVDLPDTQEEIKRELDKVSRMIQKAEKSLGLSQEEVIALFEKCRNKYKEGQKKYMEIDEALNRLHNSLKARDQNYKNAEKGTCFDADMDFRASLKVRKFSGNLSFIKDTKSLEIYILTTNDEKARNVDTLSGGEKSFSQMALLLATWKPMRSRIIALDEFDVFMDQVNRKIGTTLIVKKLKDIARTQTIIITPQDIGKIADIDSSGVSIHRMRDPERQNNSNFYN",
  "test": "SEC; StrepTrap eluates of Smc6 (5 mL) and Smc5 (150 uL) mixed, overnight at 4 °C, concentrated; complexes separated from monomeric subunits on Superose 6 10/300 in buffer G (25 mM potassium phosphate pH 8.0, 750 mM NaCl, 15% glycerol, 0.2% Tween 20, 2 mM 2-ME, 1 mM EDTA)",
  "conditions": "both partners purified",
  "data": [
    {"binder": "B1", "values": [
      {"measurement": "binding result", "result": "binds"}
    ]}
  ]
}
